Assay [1] deals with VEGFR2 fusion protein (extracellular domain of hVEGFR2 and intracellular domain of hEpoR) on Ba/F3 cells (human) (UniProt P35968). Briefly: cell-based or functional assay.
A further assay concerns the target VEGFR2 (Homo sapiens (Human), UniProt P35968 20-764). Briefly: SPR (Biacore), 10Fn3 protein or Fc fusion captured by anti-His or anti-human antibody, target in flow, 25 C, 1:1 fit. The method, then:
(§1) The binding properties of Fc-¹⁰Fn3 fusion proteins and non-Fc ¹⁰Fn3 proteins were characterized by Surface Plasmon Resonance (SPR). Anti-human or anti-Histidine antibody was immobilized on a Biacore chip, and ¹⁰ Fn3 proteins and Fc-¹⁰Fn3 fusions were captured on the chip surface. Varying concentrations of target were placed into the flow solution using MgCl2 (3 M) for chip regeneration between cycles. Kinetic determinations were performed at 25° C. Evaluation of the kinetic parameters was performed using the 1:1 binding algorithm on the Biacore Evaluation software.

Assay [2] concerns the target T1, human PCSK9 (human, UniProt Q8NBP7 31-692). Briefly: cell-based or functional assay.
Assay [3] deals with T1, human PCSK9. Briefly: PCSK9:ATI-972 FRET assay, 5 nM human PCSK9; displaced competitor: biotinylated ATI-972.
The target in assay [4] is T1, human PCSK9. Briefly: PCSK9:EGFA FRET competition assay, 5 nM PCSK9; competitor EGFA peptide. An excerpt: (§2) Two fluorescence resonance energy transfer (FRET) based assays were used to determine the competitive binding potency of PRD460 and other adnectins to hPCSK9. The PCSK9:EGFA FRET assay measures the binding of PCSK9 to the LDLR, using a soluble epidermal growth factor precursor homology domain-A (EGFA) peptide and recombinant human PCSK9.

Assay [5] addresses T1, human PCSK9. As to the kind of experiment: SPR (Biacore), 10Fn3 protein or Fc fusion captured by anti-His or anti-human antibody, target in flow, 25 C, 1:1 fit. The method, then: as §1
Assay [6] addresses T1, human PCSK9. As to the kind of experiment: PCSK9:ATI-972 FRET competition assay, 5 nM human PCSK9; competitor biotinylated ATI-972.
Source text: as §2

In assay [7] the target is T1, human PCSK9. As to the kind of experiment: SPR (Biacore), ATI-1081 captured by anti-His antibody, hPCSK9 in flow, 25 C, 1:1 fit. As for the experimental part:
The binding characteristics were characterized by Surface Plasmon Resonance (SPR). […] Varying concentrations of hPCSK9 were placed into the flow solution using MgCl2 (3 M) for chip regeneration between cycles. […] Duplicate experiments for PRD460 were performed on different days. Kinetic determinations were performed at 25° C. Evaluation of the kinetic parameters was performed using the 1:1 Binding algorithm on the Biacore Evaluation software.

The results in this text go back to patent US20210122805A1 (Bristol-Myers Squibb, published 2021).

In assay [1], CT322 (designed binder) showed an IC50 (nM), Ba/F3 proliferation assay of 7.96 nM and a Relative Potency, Ba/F3 proliferation assay of 1.

B1: C7FL (designed binder)
chain: VSDVPRDLEVVAATPTSLLISWRHPHFPTRYYRITYGETGGNSPVQEFTVPLQPPTATISGLKPGVDYTITVYAVTDGRNGRLLSIPISINYRT
notes: No Fc; anti-VEGFR2 10Fn3; not shown: the N-terminal extension, C-terminal tail and His tag of the non-Fc C7FL protein, none of which is stated for it
In the assay with VEGFR2, B1 displayed a Kd of 11.5 nM, a koff of 0.000236 s⁻¹ and a kon of 20500 M⁻¹ s⁻¹.

B2: ATI-1174 (designed binder)
chain: MGVSDVPRDLEVVAATPTSLLISWVPPSDDYGYYRITYGETGGNSPVQEFTVPIGKGTATISGLKPGVDYTITVYAVEFPWPHAGYYHRPISINYRTEIEKPCQ
modifications: pegylated (site and PEG size not stated)
notes: also called pegylated anti-PCSK9 Adnectin
On to B2, for which, in the assay with human PCSK9 [2], the “EC50 of inhibition of PCSK9-AF647 intracellular fluorescence in HepG2 cells” value is 10 nM and the “EC50 of inhibition of PCSK9-induced LDLR depletion from HepG2 cell surface (FACS)” value was found to be 8 nM. Besides, in the assay with human PCSK9 [3], the “IC50 (read off the curve)” value was about 0.9 nM. Besides, the EC50 with human PCSK9 [4] came out at 1.9 nM.

B3: 1784F03 (designed binder, from a related filing)
chain: MGVSDVPRDLEVVAATPTSLLISWRPPIHAYGYYRITYGETGGNSPVQEFTVPIVEGTATISGLKPGVDYTITVYAVEYTFKHSGYYHRPISINYRTEIDKPSQHHHHHH
As to B3, the IC50, HepG2 depletion inhibition with human PCSK9 [2] is 13.2 nM. In the assay with human PCSK9 [5], the Kd was found to be 34.5 nM, the koff came out at 0.000396 s⁻¹ and the kon turned out to be 11500 M⁻¹ s⁻¹.

B4: 1813E02 (designed binder, from a related filing)
chain: MGVSDVPRDLEVVAATPTSLLISWSPPANGYGYYRITYGETGGNSPVQEFTVPVGRGTATISGLKPGVDYTITVYAVEYTYKGSGYYHRPISINYRTEIDKPSQHHHHHH
B4 had an IC50, HepG2 depletion inhibition with human PCSK9 [2] of 10.6 nM. Besides, in the assay with human PCSK9 [5], the Kd was determined as 22.2 nM, the koff is 0.000388 s⁻¹ and the kon amounted to 17500 M⁻¹ s⁻¹.

B5: ATI-1114 (designed binder)
chain: MGVSDVPRDLEVVAATPTSLLISWVPPSDDYGYYRITYGETGGNSPVQEFTVPIGKGTATISGLKPGVDYTITVYAVEFPWPHAGYYHRPISINYRTGSGCHHHHHH
modifications: pegylated (site and PEG size not stated)
Turning to B5, in the assay with human PCSK9 [6], the EC50 is 0.8 nM. That is a sub-nanomolar value.

B6: ATI-1081 (designed binder)
chain: MGVSDVPRDLEVVAATPTSLLISWVPPSDDYGYYRITYGETGGNSPVQEFTVPIGKGTATISGLKPGVDYTITVYAVEFPWPHAGYYHRPISINYRTEIDKPSQHHHHHH
notes: No Fc
B6: the “EC50 of inhibition of PCSK9-induced LDLR depletion from HepG2 cell surface (FACS)” value with human PCSK9 [2] was 9 nM. Moreover, the EC50 is 2.8 nM with human PCSK9 [6] and 3.7 nM with human PCSK9 [4]. The Kd with human PCSK9 [7] and with human PCSK9 [5] was 6.7 nM throughout. Also, the koff with human PCSK9 [7] and with human PCSK9 [5] was 0.000245 s⁻¹ each time. Also, the kon in the assay with human PCSK9 [7] and with human PCSK9 [5] was 36500 M⁻¹ s⁻¹ in each case.
